From PMC10470925 (PLOS ONE, 2023) come the findings set out here.

Usually stoichiometry N stands for the number of molecules, sites or subunits per partner or assembly.

The series deals with the molecule itself. The series is described as follows: deoxycholate-induced oligomerization, PAGE and western blot. In general terms: A western blot detects proteins with antibodies after separation by electrophoresis.

B1: Staphylococcus aureus alpha-hemolysin (Hla) (natural protein)
chain: ADSDINIKTGTTDIGSNTTVKTGDLVTYDKENGMHKKVFYSFIDDKNHNKKLLVIRTKGTIAGQYRVYSEEGANKSGLAWPSAFKVQLQLPDNEVAQISDYYPRNSIDTKEYMSTLTYGFNGNVTGDDTGKIGGLIGANVSIGHTLKYVQPDFKTILESPTDKKVGWKVIFNNMVNQNWGPYDRDSWNPVYGNQLFMKTRNGSMKAADNFLDPNKASSLLSSGFSPDFATVITMDRKASKQQTNIDVIYERVRDDYQLHWTSTNWKGTNTKDKWTDRSSERYKIDWEKEEMTN
For B1, the “stoichiometry N” value was found to be 7.
